The results in this text go back to the Human Domainome abundance scans (Beltran et al. 2025).

± gives the uncertainty stated by the source.

B1: WW domain-containing transcription regulator protein 1, residues 116 to 162; numbered along this chain, Q9GZV5 (parent)
chain: QSYDVTDELPLPPGWEMTFTATGQRYFLNHIEKITTWQDPRKAMNQP

The variants in the series derive from B1. The series can be described thus: abundance fitness (aPCA) (normalised: wild type 0, dead -1); higher = more abundant; growth selection in yeast, the domain comes from the species named. The note with it: Homo sapiens.
N29H: the abundance fitness is -0.278 ± 0.071.
Take N29S: the abundance fitness was -0.357 ± 0.035.
As for N29P, the abundance fitness is -1.11 ± 0.13.
As to N29I, the abundance fitness is -0.949 ± 0.031.
Take N29A: the abundance fitness was -0.919 ± 0.041.
For the variant N29W, the abundance fitness is -0.965 ± 0.093.
For the variant N29K, the abundance fitness was -0.826 ± 0.052.
Under N29V stands -1.09 ± 0.036.
As to N29D, the abundance fitness was -0.42 ± 0.066.
On to N29T, for which the abundance fitness was -0.847 ± 0.051.
For N29R, the abundance fitness is -0.763 ± 0.048.
N29M: the abundance fitness is -1.02 ± 0.046.
Consider N29C, for which the abundance fitness was -1.04 ± 0.13.
Turning to N29L, the abundance fitness is -1.01 ± 0.035.
Under N29E stands -0.931 ± 0.063; under N29Q, -0.779 ± 0.061.
For the variant N29F, the abundance fitness is -1.01 ± 0.082.
Under D39R stands -0.452 ± 0.031; under D39M, -0.789 ± 0.072; under D39E, -0.536 ± 0.077.
In the case of D39F, the abundance fitness was -0.618 ± 0.059.
For the variant D39G, the abundance fitness was -0.747 ± 0.055.
Regarding D39K, the abundance fitness is -0.736 ± 0.077.
Next, D39Q: -0.911 ± 0.16; D39T: -0.761 ± 0.047.
Next, D39H: -0.202 ± 0.055.
Consider D39C, for which the abundance fitness was -0.572 ± 0.066.
In the case of D39V, the abundance fitness is -0.721 ± 0.065.
D39L: the abundance fitness was -0.599 ± 0.042.
Turning to D39P, the abundance fitness was -0.588 ± 0.065.
With D39S, the abundance fitness is -0.719 ± 0.035.
For the variant D39I, the abundance fitness was -0.469 ± 0.051.
In the case of D39Y, the abundance fitness is -0.709 ± 0.068.
In the case of G23M, the abundance fitness is -0.875 ± 0.079.
Regarding G23W, the abundance fitness was -0.964 ± 0.054.
Consider G23S, for which the abundance fitness is -0.565 ± 0.032.
Next, G23R: -0.369 ± 0.029; G23V: -0.925 ± 0.042; G23K: -0.412 ± 0.061.
As to G23Q, the abundance fitness was -0.469 ± 0.059.
Under G23L stands -1.07 ± 0.098; under G23T, -0.918 ± 0.073.
As to G23P, the abundance fitness was -0.827 ± 0.047.
For the variant K42D, the abundance fitness is -0.26 ± 0.061.
For the variant K42F, the abundance fitness was -0.128 ± 0.061.
Regarding K42V, the abundance fitness was -0.166 ± 0.045.
In the case of K42C, the abundance fitness was -0.097 ± 0.048.
Next, K42A: -0.113 ± 0.03.
In the case of K42L, the abundance fitness was -0.111 ± 0.034.
Turning to K42Y, the abundance fitness is -0.164 ± 0.037.
Next, K42W: -0.304 ± 0.053; K42T: -0.073 ± 0.042; K42H: -0.061 ± 0.057.
Consider K42Q, for which the abundance fitness was -0.105 ± 0.054.
Next, K42R: -0.111 ± 0.04; K42M: -0.202 ± 0.051; K42N: 0.045 ± 0.05.
Consider K42P, for which the abundance fitness is -0.161 ± 0.033.
Take K42S: the abundance fitness is -0.203 ± 0.035.
Take K42G: the abundance fitness was -0.141 ± 0.036.
Regarding K42E, the abundance fitness is -0.052 ± 0.044.
Consider K42I, for which the abundance fitness was -0.038 ± 0.036.
Regarding T35N, the abundance fitness is -0.57 ± 0.039.
Take T35S: the abundance fitness was -0.072 ± 0.028.
For the variant T35P, the abundance fitness was -0.899 ± 0.081.
Next, T35D: -0.728 ± 0.067; T35F: -0.566 ± 0.037.
Take T35Q: the abundance fitness is -0.675 ± 0.069.
Under T35I stands -0.419 ± 0.05; under T35G, -0.493 ± 0.033.
As for T35Y, the abundance fitness is -0.413 ± 0.068.
As to T35H, the abundance fitness is -0.56 ± 0.039.
Turning to T35C, the abundance fitness was -0.236 ± 0.045.
As for T35L, the abundance fitness was -0.7 ± 0.044.
Next, T35K: -0.433 ± 0.056.
Take T35M: the abundance fitness is -0.47 ± 0.04.
Next, T35W: -0.581 ± 0.029; T35E: -0.382 ± 0.041; L28K: 0.128 ± 0.067.
As for L28Y, the abundance fitness was -0.268 ± 0.087.
As for L28W, the abundance fitness was -0.426 ± 0.035.
As for L28D, the abundance fitness was -0.909 ± 0.15.
Turning to L28T, the abundance fitness was -0.096 ± 0.059.
Turning to L28A, the abundance fitness was -0.143 ± 0.043.
Next, L28F: -0.335 ± 0.074; L28R: -0.112 ± 0.029; L28H: -0.55 ± 0.099.
For the variant L28G, the abundance fitness is -0.583 ± 0.041.
Turning to L28S, the abundance fitness is -0.205 ± 0.043.
On to L28I, for which the abundance fitness worked out at 0.044 ± 0.13.
As for L28N, the abundance fitness is -0.446 ± 0.085.
As to L28P, the abundance fitness is -0.697 ± 0.099.
Regarding L28V, the abundance fitness turned out to be 0.035 ± 0.042.
Take L28M: the abundance fitness was 0.055 ± 0.065.
Take L28C: the abundance fitness is -0.16 ± 0.046.
Next, Y26N: -0.412 ± 0.067; Y26I: -0.409 ± 0.074.
With Y26P, the abundance fitness is -0.814 ± 0.15.
In the case of Y26W, the abundance fitness was -0.587 ± 0.054.
Turning to Y26A, the abundance fitness is -0.397 ± 0.034.
In the case of Y26K, the abundance fitness was -0.506 ± 0.051.
Under Y26S stands -0.54 ± 0.042; under Y26V, -0.322 ± 0.039.
Turning to Y26E, the abundance fitness was -0.586 ± 0.065.
In the case of Y26T, the abundance fitness was -0.409 ± 0.05.
Take Y26C: the abundance fitness is -0.566 ± 0.065.
Regarding Y26H, the abundance fitness was -0.387 ± 0.071.
As for Y26R, the abundance fitness is -0.487 ± 0.044.
For the variant Y26F, the abundance fitness was -0.265 ± 0.06.
With Y26G, the abundance fitness is -0.661 ± 0.047.
Take Y26D: the abundance fitness was -0.739 ± 0.085.
For the variant E32R, the abundance fitness turned out to be 0.004 ± 0.024.
Under E32G stands -0.091 ± 0.025; under E32L, 0.201 ± 0.024.
Under E32S stands -0.02 ± 0.025; under E32V, -0.19 ± 0.025; under E32C, -0.053 ± 0.035.
Turning to E32Q, the abundance fitness was found to be 0.033 ± 0.031.
As to E32W, the abundance fitness came out at 0.094 ± 0.028.
Under E32H stands -0.05 ± 0.048; under E32M, 0.072 ± 0.045.
On to E32A, for which the abundance fitness was found to be 0.028 ± 0.025.
Consider E32P, for which the abundance fitness was -0.805 ± 0.045.
Next, E32F: 0.122 ± 0.046; E32I: -0.055 ± 0.04; E32T: -0.017 ± 0.033.
Under E32Y stands 0.054 ± 0.049.
Next, E32K: 0.006 ± 0.042; E32D: -0.072 ± 0.045.
For Q24N, the abundance fitness was -0.164 ± 0.026.
Next, Q24P: -0.846 ± 0.075; Q24Y: -0.424 ± 0.065.
In the case of Q24V, the abundance fitness was -0.12 ± 0.036.
As for Q24A, the abundance fitness was -0.124 ± 0.045.
Under Q24E stands 0.185 ± 0.052.
Next, Q24T: -0.178 ± 0.04; Q24S: -0.174 ± 0.025; Q24D: 0.017 ± 0.055.
For Q24K, the abundance fitness is -0.14 ± 0.052.
For Q24G, the abundance fitness is -0.286 ± 0.041.
Consider Q24C, for which the abundance fitness is -0.305 ± 0.056.
Consider Q24W, for which the abundance fitness was -0.82 ± 0.045.
Q24M: the abundance fitness was -0.489 ± 0.06.
In the case of Q24L, the abundance fitness was -0.364 ± 0.041.
With Q24F, the abundance fitness is -0.623 ± 0.037.
Consider Q24I, for which the abundance fitness is -0.226 ± 0.11.
As for Q24R, the abundance fitness was -0.222 ± 0.04.
On to Q24H, for which the abundance fitness was -0.552 ± 0.1.
For K33T, the abundance fitness is -0.483 ± 0.031.
On to K33H, for which the abundance fitness was -0.2 ± 0.04.
Regarding K33P, the abundance fitness is -0.942 ± 0.066.
As to K33S, the abundance fitness was -0.177 ± 0.029.
Next, K33Q: -0.139 ± 0.038; K33N: -0.041 ± 0.027.
As for K33C, the abundance fitness was -0.198 ± 0.038.
Take K33L: the abundance fitness was -0.558 ± 0.028.
In the case of K33Y, the abundance fitness was -0.733 ± 0.084.
Under K33R stands -0.063 ± 0.025.
For the variant K33D, the abundance fitness is -0.517 ± 0.03.
For the variant K33A, the abundance fitness is -0.209 ± 0.025.
Under K33F stands -0.683 ± 0.074.
For the variant K33I, the abundance fitness is -1.01 ± 0.083.
In the case of K33G, the abundance fitness was 0.122 ± 0.024.
Take K33V: the abundance fitness is -0.905 ± 0.03.
K33M: the abundance fitness is -0.284 ± 0.038.
Under H30E stands -0.167 ± 0.041; under H30I, -0.412 ± 0.049.
